Tests used:
[1] = target: T1, SARS-CoV-2 spike protein on pseudotyped lentivirus (Wuhan Reference Pseudovirus) (SARS-CoV-2, UniProt P0DTC2 14-1273); assay: cell-based or functional assay
[2] = target: T1, SARS-CoV-2 spike protein on pseudotyped …; assay: cell-based or functional assay; remark: listed apart in the source
[3] = target: T1, SARS-CoV-2 spike protein on pseudotyped …; assay: cell-based or functional assay; remark: listed apart in the source
[4] = target: SARS-CoV-2 Delta Variant spike protein on pseudotyped lentivirus (SARS-CoV-2 Delta variant); assay: cell-based or functional assay
[5] = target: T2, SARS-CoV-2 Delta Variant RBD (SARS-CoV-2 Delta variant); assay: ELISA, RBD coated
T2 construct: domain: RBD; coated on ELISA plates

[6] = target: T3, SARS-CoV-2 Alpha Variant RBD (SARS-CoV-2 Alpha variant); assay: ELISA, RBD coated
T3 construct: domain: RBD; coated on ELISA plates

[7] = target: T1, SARS-CoV-2 spike protein on pseudotyped …; assay: cell-based or functional assay; remark: listed apart in the source
[8] = target: SARS-CoV-2 Gamma Variant spike protein on pseudotyped lentivirus (SARS-CoV-2 Gamma variant); assay: cell-based or functional assay
[9] = target: T1, SARS-CoV-2 spike protein on pseudotyped …; assay: cell-based or functional assay; remark: listed apart in the source
[10] = target: T4, SARS-CoV-2 Gamma Variant RBD (SARS-CoV-2 Gamma variant); assay: ELISA, RBD coated
T4 construct: domain: RBD; coated on ELISA plates

[11] = target: T5, SARS-CoV-2 Beta Variant RBD (SARS-CoV-2 Beta variant); assay: ELISA, RBD coated
T5 construct: domain: RBD; coated on ELISA plates

[12] = target: T6, recombinant SARS-CoV-2 RBD with C-terminal AviTag (SARS-CoV-2, UniProt P0DTC2 319-541); assay: BLI, biotinylated RBD on streptavidin biosensors; OR: over-range
[13] = target: T6, recombinant SARS-CoV-2 RBD with …; assay: BLI, biotinylated RBD on streptavidin biosensors; OR: over-range [Cont. 2]
[14] = target: T6, recombinant SARS-CoV-2 RBD with …; assay: BLI, biotinylated RBD on streptavidin biosensors; OR: over-range [Cont. 1]
[15] = target: T6, recombinant SARS-CoV-2 RBD with …; assay: ELISA, competition with coated ACE2-Fc for RBD [Cont. 1]
[16] = target: T1, SARS-CoV-2 spike protein on pseudotyped …; assay: cell-based or functional assay; remark: listed apart in the source
[17] = target: T6, recombinant SARS-CoV-2 RBD with …; assay: ELISA, competition with coated ACE2-Fc for RBD [Cont. 4]
[18] = target: T6, recombinant SARS-CoV-2 RBD with …; assay: BLI, biotinylated RBD on streptavidin biosensors [Cont. 4]
[19] = target: T6, recombinant SARS-CoV-2 RBD with …; assay: BLI, biotinylated RBD on streptavidin biosensors; OR: over-range [Cont. 4]
[20] = target: T6, recombinant SARS-CoV-2 RBD with …; assay: BLI, biotinylated RBD on streptavidin biosensors [Cont. 2]

B1: PP1140 MBP-4B0F-PAPA-R5d-B6-H6 (VHH)
VHH: QVQLVESGGGLVQPGGSLRLSCAASGRILAANIVHWYRQAPGKEREGVAGITSGGGSYYADSVKGRFTISRDNAKNTVYLQMNSLKPEDTAVYYCNALGLGQSSLYRSADPYDSWGQGTQVTVSS
notes: Form: Heptamer
With B1 the “Pseudovirus inhibition IC50 [Cont. 5]” value [1] was 7.04 nM, the “Pseudovirus neutralization IC50” value [2] was 2.07 nM and the “infectivity % under 10 ug/mL VHH treatment” value (“infectivity %” for short) [3] was 2.47%.

B2: PP1150 MBP-5HVZ-PAPA-R5b-G1-H6 (VHH)
VHH: QVQLVESGGGLVQPGGSLRLSCAASGSIGQIVLVHWFRQAPGKQRELVAGITSPSSTYYADSVKGRFTISRDNAKNTVYLQMNSLKPEDTAVYYCNTELEGKTQGFTGKTVWYDYWGQGTQVTVSS
notes: Form: Dimer
With B2 the “Pseudovirus neutralization IC50” value [2] was 2.72 nM, the “Pseudovirus neutralization IC50” value [4] was 0.43 nM and the EC50 [5] was 0.86 nM. For the same binder, the EC50 [6] was 20.1 nM, the “Pseudovirus inhibition IC50 [Cont. 3]” value [7] was 2.33 nM and the “infectivity %” value [3] was 2.31%.

B3: MBP-5HVZ-R5B-G1-H6 (VHH)
VHH: QVQLVESGGGLVQPGGSLRLSCAASGSIGQIVLVHWFRQAPGKQRELVAGITSPSSTYYADSVKGRFTISRDNAKNTVYLQMNSLKPEDTAVYYCNTELEGKTQGFTGKTVWYDYWGQGTQVTVSS
For B3, the “Pseudovirus inhibition IC50 [Cont. 3]” value [7] was 5.82 nM.

B4: PP1107 MBP-5HVZ-PAPA-RN-22-H6 (VHH)
VHH: QVQLVESGGGLVQPGGSLRLSCAASGSISEINLLHWFRQAPGKQREWVATMTSGGSTDYADSVKGRFTISRDNAKNTVYLQMNSLKPEDTAVYYCAADEFTKYGHGRYWGQGTQVTVSS
notes: Form: Dimer
With B4 the “Pseudovirus neutralization IC50” value [8] was 0.649 nM, the “Pseudovirus neutralization IC50” value [2] was 32.9 nM and the “Pseudovirus inhibition IC50 [Cont. 9]” value [9] was 110 nM. For the same binder, the EC50 [10] was 0.18 nM, the EC50 [11] was 0.25 nM and the EC50 [6] was 0.28 nM. The “infectivity %” value [3] was 34.3%.

B5: PP803 MBP-R2A-F3-H6 (VHH)
VHH: QVQLVESGGGLVQPGGSLRLSCAASGSITSINWMHWFRQAPGKDREGVASISQTGRGSYADSVKGRFTISRDNAKNTVYLQMNSLKPEDTAVYYCAAASRTGTPYNYWGQGTQVTVSS
notes: Form: Monomer
For B5, the Kd [12] was ~1900 nM and the “infectivity %” value [3] was 70.7%.

B6: PP814 MBP-R2E-F4-H6 (VHH)
VHH: QVQLVESGGGLVQPGGSLRLSCAASGETFSSNAMHWFRQAPGKGREFVAAITSGGNDNYSDSVKGRFTISRDNAKNTVYLQMNSLKPEDTAVYYCNAPATEDTSHYPRNYWGQGTQVTVSS
notes: Form: Monomer
With B6 the Kd [13] was ~1600 nM and the “infectivity %” value [3] was 84.7%.

B7: dimeric VHH (VHH-5HVZ-MBP) R2C-F6 (VHH)
VHH: QVQLVESGGGLVQPGGSLRLSCAASGRILAANIVHWYRQAPGKEREGVAGITTGGSNYYSDSVKGRFTISRDNAKNTVYLQMNSLKPEDTAVYYCNALGLGSASGSYESWGQGTQVTVSS
With B7 the Kd [14] was ~0.96 nM, the IC50 [15] was 6.5 nM and the “Pseudovirus inhibition IC50 [Cont. 1]” value [16] was 92.4 nM.

B8: PP836 MBP-R5D-A1-H6 (VHH)
VHH: QVQLVESGGGLVQPGGSLRLSCAASGSISSYNAMHWFRQAPGKQREWVAGLTSSGSDGYVDSVKGRFTISRDNAKNTVYLQMNSLKPEDTAVYYCNAFSYHTYSRYDFWGQGTQVTVSS
notes: Form: Monomer
With B8 the IC50 [17] was 6.2 nM, the Kd [18] was 527 nM and the “infectivity %” value [3] was 55%.

B9: PP810 MBP-R2D-A6-H6 (VHH)
VHH: QVQLVESGGGLVQPGGSLRLSCAASGSGASIGAMHWFRQAPGKGREWVASITSAGNTYYGDSVKGRFTISRDNAKNTVYLQMNSLKPEDTAVYYCNALAGANYESQWEEYNYWGQGTQVTVSS
notes: Form: Monomer
For B9, the Kd [14] was ~4600 nM, the IC50 [15] was 0.1 nM and the “infectivity %” value [3] was 77.5%.

B10: PP815 MBP-R5A-A1-H6 (VHH)
VHH: QVQLVESGGGLVQPGGSLRLSCAASGAELSYTAIHWFRQAPGKQREFVATINSGGSSYYADSVKGRFTISRDNAKNTVYLQMNSLKPEDTAVYYCTALLDSTYDYWGQGTQVTVSS
notes: Form: Monomer
With B10 the Kd [13] was ~2700 nM and the “infectivity %” value [3] was 84.4%.

B11: PP833 MBP-R5C-F6-H6 (VHH)
VHH: QVQLVESGGGLVQPGGSLRLSCAASGQTNSILAMHWYRQAPGKQREAVATITSGSNSTYADSVKGRFTISRDNAKNTVYLQMNSLKPEDTAVYYCAARNGKLSPKANQRLYWGQGTQVTVSS
notes: Form: Monomer
With B11 the Kd [18] was 100 nM and the “infectivity %” value [3] was 86.2%.

B12: PP831 MBP-R5C-F3-H6 (VHH)
VHH: QVQLVESGGGLVQPGGSLRLSCAASGTIPSINYTAWYRQAPGKQRELVASLTSGDNRYYTDSVKGRFTISRDNAKNTVYLQMNSLKPEDTAVYYCNAKTVGSSYRDSYNYWGQGTQVTVSS
notes: Form: Monomer
For B12, the IC50 [17] was 151 nM, the “infectivity %” value [3] was 81.2% and the Kd [19] was ~5370 nM.

B13: PP821 MBP-R5A-D6-H6 (VHH)
VHH: QVQLVESGGGLVQPGGSLRLSCAASGNDWYINSAHWYRQAPGKEREFVASVSRGGSNNYRDSVKGRFTISRDNAKNTVYLQMNSLKPEDTAVYYCAALLETSSGDYTYWGQGTQVTVSS
notes: Form: Monomer
In the case of B13, the “infectivity %” value [3] is reported as 76.7% and the Kd [20] is reported as 100 nM.

B14: PP834 MBP-R5C-G2-H6 (VHH)
VHH: QVQLVESGGGLVQPGGSLRLSCAASGSATSINRMAWVRQAPGKEREWVAVIDSGGYTYYADSVKGRFTISRDNAKNTVYLQMNSLKPEDTAVYYCNAVPVTTDKTPMYQYWGQGTQVTVSS
notes: Form: Monomer
B14 was tested, and the IC50 [17] was 184 nM, the “infectivity %” value [3] was 89.2% and the Kd [19] was ~2120 nM.

B15: MBP-5HVZ-R5C-G2-H6 (VHH)
VHH: QVQLVESGGGLVQPGGSLRLSCAASGSATSINRMAWVRQAPGKEREWVAVIDSGGYTYYADSVKGRFTISRDNAKNTVYLQMNSLKPEDTAVYYCNAVPVTTDKTPMYQYWGQGTQVTVSS
notes: dimer
B15 gave an IC50 [17] of 121 nM and a Kd [18] of 29.6 nM.

B16: PP837 MBP-R5D-B2-H6 (VHH)
VHH: QVQLVESGGGLVQPGGSLRLSCAASGSIWSIAFMSWYRQAPGKGREWVAAITTGNDEAYADSVKGRFTISRDNAKNTVYLQMNSLKPEDTAVYYCAANTYERTPDGRTFSYWGQGTQVTVSS
notes: Form: Monomer
For B16, the IC50 [17] was 3.7 nM, the “infectivity %” value [3] was 77.6% and the Kd [19] was ~2350 nM.

B17: PP1113 MBP-5HVZ-PAPA-RN-29-H6 (VHH)
VHH: QVQLVESGGGLVQPGGSLRLSCAASGYILSENLTAWFRQAPGKAREVVATVTSGDYTNYDDSVKGRFTISRDNAKNTVYLQMNSLKPEDTAVYYCAAGTSDWEVKWSHWGQGTQVTVSS
notes: Form: Dimer
In the case of B17, the “Pseudovirus neutralization IC50” value [2] is reported as 7.09 nM, the “Pseudovirus inhibition IC50 [Cont. 9]” value [9] is reported as 9.38 nM and the EC50 [10] is reported as 3.37 nM. For the same binder, the EC50 [11] was 5.64 nM, the EC50 [6] was 0.72 nM and the “infectivity %” value [3] was 6.25%.

B18: PP811 MBP-R2D-D3-H6 (VHH)
VHH: QVQLVESGGGLVQPGGSLRLSCAASGHIFSINNAAWVRQAPGKSREGVATIHSGGGTYYSDSVKGRFTISRDNAKNTVYLQMNSLKPEDTAVYYCNAEVSTGAGSRGRVSDVYWGQGTQVTVSS
notes: Form: Monomer
In the case of B18, the Kd [14] is reported as ~27000 nM and the “infectivity %” value [3] is reported as 75.9%.

B19: PP817 MBP-R5A-B3-H6 (VHH)
VHH: QVQLVESGGGLVQPGGSLRLSCAASGQLDRSNAMAWFRQAPGKGREWVASITSGASTQYADSVKGRFTISRDNAKNTVYLQMNSLKPEDTAVYYCAADRYRAIQRTQYSWGQGTQVTVSS
notes: Form: Monomer
In the case of B19, the Kd [13] is reported as ~5170 nM and the “infectivity %” value [3] is reported as 80%.
